Test results published in patent US20250041455A1 (Regeneron, published 2025).

B1: 12799B scFv (VH-VK) (scFv)
chain: QITLKESGPTLVKPTQTLTLTCTFSGFSLSTSGVGVVWIRQPPGKALEWLALIYWNDHKRYSPSLGSRLTITKDTSKNQVVLTMTNMDPVDTATYYCAHYSGSYSYYYYGLDVWGQGTTVTVSSDIQMTQSPSSVSASVGDRVTITCRASQGIASWLAWYQQKPGKAPELLIYAASSLQGGVPSRFSGSGSGTDFTLTISSLQPEDFAIYYCQQANYFPWTFGQGTKVEIK
B2: 12802B scFv (VH-VK) (scFv)
chain: QVQLVESGGGLVKPGGSLRLSCAASGFTFSDYFMSWIRQAPGKGLEWVSYISSTGSTINYADSVKGRFTISRDNVKNSLYLQMTSLRVEDTAVYYCTRDNWNYEYWGQGTLVTVSSEIVMTQSPATLSVSPGERATLSCRASQSVSINLAWYQQKPGQAPRLLIFVASTRATGIPARFSGSGSGTEFTLTISSLQSEDFATYYCQQYDIWPYTFGQGTKLEIK
B3: 12812B scFv (VH-VK) (scFv)
chain: QVQLVQSGAEVKKPGSSVRVSCKASRGTFSSYAISWVRQAPGQGLEWMGGIIPIFGTANYAQKFLARVTITADESTSTAYMELSSLRSEDTAVYYCAREKGWNYFDYWGQGTLVTVSSDIQMTQSPPSVSASVGDRVTITCRASQGISSWLAWYQQKPGKAPKLLIYAASSLQSGVPSRFSGSGSGTDFTLTISSLQPEDFATYYCQQANSFPRTFGQGTKVEIK
B4: 12798B scFv (VH-VK) (scFv)
chain: EVQLVESGGDLVQPGRSLRLSCAASGFTFDDYAMHWVRQAPGKGLEWVSGISWNSATRVYADSVKGRFTISRDNAKNFLYLQMNSLRSEDTALYHCAKDMDISLGYYGLDVWGQGTTVTVSSEIVMTQSPATLSVSPGERATLSCRASQTVSSNLAWYQQKPGQAPRLLIYGSSSRATGIPARFSGSGSGTEFTLTISSLQSEDFAVYYCQQYNNWPPYTFGQGTKLEIK
B5: 69307 scFv (VH-VK) (scFv)
chain: EVQLVESGGGLVQPGGSLRLSCTASGFTFSNYWMTWVRQAPGKGLEWVANIKEDGSEKEYVDSVKGRFTISRDNAKNSLYLQMNSLRGEDTAVYYCARDGEQLVDYYYYYVMDVWGQGTTVTVSSDIQMTQSPSSVSASVGDRVTITCRASQGISSWLAWYQQKPGKAPKLLIYAASSLQSGVPSRFSGSGSGTDFTLTISSLQPEDFATYYCQKADSLPYAFGQGTKLEIK

Each binder was assayed against T1, hmm.hTfRC (REGN2431) (human, UniProt P02786 89-760) (assay: blocking ELISA; Hmm-hTFRC + supernatant on plate-bound holo-Tf).
T1 construct: also called hmm.hTfR(C89-F763); His-myc-myc-hTFRC ecto
T1 sequence (P02786 other isoform, or with tags, fused parts or gaps): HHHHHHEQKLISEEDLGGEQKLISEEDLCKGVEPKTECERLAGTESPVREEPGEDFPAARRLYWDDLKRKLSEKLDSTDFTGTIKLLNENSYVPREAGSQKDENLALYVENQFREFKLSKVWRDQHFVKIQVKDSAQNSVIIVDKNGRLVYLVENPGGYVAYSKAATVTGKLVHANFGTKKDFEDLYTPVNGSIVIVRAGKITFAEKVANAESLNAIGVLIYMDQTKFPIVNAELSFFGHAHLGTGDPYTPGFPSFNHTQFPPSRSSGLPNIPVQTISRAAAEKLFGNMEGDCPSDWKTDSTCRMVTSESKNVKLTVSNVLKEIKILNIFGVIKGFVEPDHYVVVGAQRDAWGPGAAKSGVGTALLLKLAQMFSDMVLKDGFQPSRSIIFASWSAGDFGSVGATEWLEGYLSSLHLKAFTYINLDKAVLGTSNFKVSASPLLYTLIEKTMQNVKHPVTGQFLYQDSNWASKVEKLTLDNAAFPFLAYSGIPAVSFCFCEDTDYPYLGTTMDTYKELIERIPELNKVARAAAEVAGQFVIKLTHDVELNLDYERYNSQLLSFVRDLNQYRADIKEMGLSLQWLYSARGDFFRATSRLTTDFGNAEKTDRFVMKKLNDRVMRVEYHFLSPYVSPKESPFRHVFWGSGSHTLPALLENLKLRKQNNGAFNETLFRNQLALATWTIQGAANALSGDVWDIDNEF

% Blocking [%] | Binder
26 | B1
11 | B2
19 | B3
0 | B4
9 | B5
